Patent publication US20240400638A1, “COMBINATION OF RELAXIN AND VASOPRESSIN ANALOGUES FOR TREATMENT OF RENAL DISORDERS OR CONDITIONS” (River 2 Renal Corp., priority 2021, published 2024)
Values belong to the molecule of their own block, whether it stands above or below them. Numbered stars: 1 amine (or outer) side, 2 acyl side, 3 side chain; on linkers, the order of the positions; unused ones are H or OH. Bridge positions count the residues as written; N and C are the ends. Square brackets hold non-standard residues; d marks the D form. Side chains are listed from the residue outwards. Peptide text beside a SMILES is read from it. * marks the point of attachment. X2 = CCCCCCCCCCCCCCCCCC(=O)N[C@@H](CCC(=O)N[C@@H](CCC(=O)N[C@@H](CCC(=O)NCCCOCCOCCOCCCNC(=O)CCC(=O)NCCCOCCOCCOCCCNC(=O)CCC(=O)NCCCOCCOCCOCCCNC(=O)CCC(=O)NCCCOCCOCCOCCCN*)C(=O)O)C(=O)O)C(=O)O; X1 = CCCCCCCCCCCCCCCC(=O)N[C@@H](CCC(=O)N[C@@H](CCC(=O)N[C@@H](CCC(=O)NCCCOCCOCCOCCCNC(=O)CCC(=O)NCCCOCCOCCOCCCNC(=O)CCC(=O)NCCCOCCOCCOCCCN*)C(=O)O)C(=O)O)C(=O)O; TTDS = 4-[3-[2-[2-(3-aminopropoxy)ethoxy]ethoxy]propylamino]-4-oxo-butanoyl; γGlu = O=C(O)[C@H](CCC(=O)[*:2])N[*:1]; Stearoyl = CCCCCCCCCCCCCCCCCC(=O)*; Palmitoyl = CCCCCCCCCCCCCCCC(=O)*; Cit = NC(=O)NCCC[C@H](N)C(=O)O; Suc = O=C(CCC(=O)[*:2])[*:1]; αMeK = C[C@](N)(CCCCN)C(=O)O; hLys = NCCCCC[C@H](N)C(=O)O; Aib = CC(C)(N)C(=O)O

Assays:
human RXFP1 [1] = biological target: T1, human RXFP1 (Homo sapiens, UniProt Q9HBX9); experiment: In vitro OVCAR5 cAMP assay (HTRF); format: cell-based; settings: OVCAR 5 cells (cAMP); for EC50: Table 2; for Emax: maximal cAMP relative to human relaxin-2, Table 2
T1 construct: OVCAR5 cells expressing endogenous human RXFP1; endogenous in cells; host or cells: OVCAR5 cells
T1 sequence (Q9HBX9 1-757): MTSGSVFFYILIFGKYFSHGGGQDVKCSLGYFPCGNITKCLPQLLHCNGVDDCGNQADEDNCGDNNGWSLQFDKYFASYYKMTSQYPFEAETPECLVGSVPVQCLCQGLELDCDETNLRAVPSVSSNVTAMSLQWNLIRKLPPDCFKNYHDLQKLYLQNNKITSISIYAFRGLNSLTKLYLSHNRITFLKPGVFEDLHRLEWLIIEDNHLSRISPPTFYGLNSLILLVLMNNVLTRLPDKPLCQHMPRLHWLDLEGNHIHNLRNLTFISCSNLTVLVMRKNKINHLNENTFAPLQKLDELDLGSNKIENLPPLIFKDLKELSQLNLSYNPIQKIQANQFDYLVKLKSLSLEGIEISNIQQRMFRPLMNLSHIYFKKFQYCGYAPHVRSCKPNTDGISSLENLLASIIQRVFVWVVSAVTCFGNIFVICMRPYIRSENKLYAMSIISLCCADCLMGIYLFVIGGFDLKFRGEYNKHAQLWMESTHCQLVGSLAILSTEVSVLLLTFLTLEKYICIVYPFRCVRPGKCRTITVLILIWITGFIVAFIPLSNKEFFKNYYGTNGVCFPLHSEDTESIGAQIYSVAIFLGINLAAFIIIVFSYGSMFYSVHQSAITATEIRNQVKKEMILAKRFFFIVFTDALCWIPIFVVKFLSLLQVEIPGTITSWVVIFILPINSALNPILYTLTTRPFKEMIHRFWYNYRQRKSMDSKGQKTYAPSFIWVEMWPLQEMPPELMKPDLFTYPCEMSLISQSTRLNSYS
From the text: OVCAR5 cells expressing endogenous human RXFP1 were used to test RXFP1 agonist properties of relaxin peptide analogues, and in particular of the peptides of sequence SEQ ID NO: 1-97.
Since RXFP1 is a Gs coupled GPCR, increases in cAMP was used as readout of RXFP1 activation.
Isobutyl methyl xanthine (IBMX) was used to inhibit phosphodiesterase activity facilitating cAMP measurements. HTRF (Homogenous Time Resolved Fluorescence) technology was used to detect cAMP due to its high sensitivity.
In summary, OVCAR5 were grown in regular medium (RPMI) containing 10% fetal calf serum (FCS) and 1% antibiotics (penicillin/streptomycin).
Before the experiments, cells were detached with accutase and incubated for 40 minutes at 37° C. with 1 mM (3-isobutyl-1-methylxanthine) IBMX.
Cells were then distributed in 384 black well plates containing increasing concentrations of the different peptides in a fix volume of medium (without FCS).
After an incubation of 30 min at 37° C. in a humid incubator in 5% CO2, the reaction was stopped by adding a fixed volume of a solution containing a lysis buffer and cAMP-D2 (cAMP labeled with the dye d2) and the anti-cAMP antibody linked to Europium and used for cAMP detection.
Readout of the experiment were performed on a fluorimeter allowing HTRF measurement. Activation curves were generated by plotting the intracellular value of cAMP versus log 10 of the compound concentration.
The 50% activation concentration (EC50) was calculated by nonlinear regression using the sigmoidal dose-response (variable slope) equation with Prism 5 software.
Emax % was determined as the maximal intracellular value of cAMP for test compound (upper limit of cAMP vs concentration curve) divided by the maximal intracellular value of cAMP for human relaxin-2 (H2-R1x) determined in the same test occasion multiplied by 100.

[2] = cited from earlier work
human RXFP1 [3] = biological target: T2, human RXFP1 (human, UniProt Q9HBX9 1-757); experiment: cell-based or functional assay
T2 sequence (looked up): T1 sequence (Q9HBX9 1-757)

human RXFP1 [4] = biological target: T2, human RXFP1; experiment: cell-based or functional assay; remark: listed apart in the source

Molecule: NCCCC[C@H](NC(=O)[C@@H]1CCCN1C(=O)[C@@H]1CSSC[C@H](NC(=O)CNC(=O)CNC(=O)CN)C(=O)N[C@@H](Cc2ccc(O)cc2)C(=O)N[C@@H](Cc2ccccc2)C(=O)N[C@@H](CCC(N)=O)C(=O)N[C@@H](CC(N)=O)C(=O)N1)C(=O)NCC(N)=O [terlipressin, Terlipressin] (H-GGGCYFQNCPKG-NH2; disulfide 4-9)
mortality ([2]; at 3 months, patients receiving terlipressin and standard of care (e.g., albumin), Wong et al. 2021): 51%
patients requiring discontinuation of treatment for severe side effects ([2]; human, in vivo): up to 10%
patients with side effects ([2]; human, in vivo): up to 40%

Molecule: Ac-LEGREKVRAK(Ac)I[Aib][Aib]EGK([TTDS-TTDS-γGlu-γGlu-γGlu-γGlu-Stearoyl])STWS[Aib]RKK(Ac)-NH2 [Relaxin peptide analogue of SEQ ID NO: 54]
EC50 (nM), OVCAR 5 cells (cAMP) (human RXFP1 [3]): 0.16 nM
EMax, OVCAR 5 cells (cAMP) (human RXFP1 [3]): 96%

Molecule: Ac-LEGREKVRA[Cit]I[Aib][Aib]EGK([TTDS-TTDS-TTDS-γGlu-γGlu-γGlu-Stearoyl])STFS[αMeK]RAK(Ac)-NH2 [Relaxin peptide analogue of SEQ ID NO: 56]
EC50 (nM), OVCAR 5 cells (cAMP) (human RXFP1 [3]): 0.15 nM
EMax, OVCAR 5 cells (cAMP) (human RXFP1 [3]): 91%

Molecule: Ac-LEGREKVRAK(Ac)I[Aib][Aib]EGK([TTDS-TTDS-TTDS-γGlu-γGlu-γGlu-γGlu-Stearoyl])STWS[Aib]RKK(Ac)-NH2 [Relaxin peptide analogue of SEQ ID NO: 51]
EC50 (nM), OVCAR 5 cells (cAMP) (human RXFP1 [3]): 0.1 nM
EMax, OVCAR 5 cells (cAMP) (human RXFP1 [3]): 98%

Molecule: Ac-VIKLSGRELVRAQIAISGMSTWSKKKK-NH2 [KKKK(AcB7-29 C11.23S)]
EC50 (nM), cAMP assay in OVCAR 5 cells (human RXFP1 [4]): 206 nM
Emax, cAMP assay in OVCAR 5 cells (human RXFP1 [4]): 84%

Molecule: Ac-VIKLSGRELVRAQIAISGMSTWSKRSL-NH2 [AcB7-33 C11.23S]
EC50 (nM), cAMP assay in OVCAR 5 cells (human RXFP1 [4]): 929 nM
Emax, cAMP assay in OVCAR 5 cells (human RXFP1 [4]): 70%

Molecule: Ac-LEGREKVRAK(Ac)I[Aib][Aib]EGK([TTDS-TTDS-TTDS-γGlu-γGlu-γGlu-Palmitoyl])STWS[hLys]RAK(Ac)-NH2 [Relaxin peptide analogue of SEQ ID NO: 57]
EC50 (nM), OVCAR 5 cells (cAMP) (human RXFP1 [3]): 0.44 nM
EMax, OVCAR 5 cells (cAMP) (human RXFP1 [3]): 98%

Molecule: H-VIKLSGRELVRAQIAISGMSTWSKRSL-NH2 [B7-33 C11.23S]
EC50 (nM), cAMP assay in OVCAR 5 cells (human RXFP1 [4]): 1640 nM
Emax, cAMP assay in OVCAR 5 cells (human RXFP1 [4]): 90%

The next lines start with the values.

EC50 (human RXFP1 [1]): 0.54 nM
Emax (human RXFP1 [1]): 95%
Molecule: CCCCCCCCCCCCCCCC(=O)N[C@@H](CCC(=O)N[C@@H](CCC(=O)N[C@@H](CCC(=O)NCCCOCCOCCOCCCNC(=O)CCC(=O)NCCCOCCOCCOCCCNC(=O)CCC(=O)NCCCOCCOCCOCCCNC(=O)CCC(=O)NCCCC[C@H](NC(=O)CNC(=O)[C@H](CCC(=O)O)NC(=O)C(C)(C)NC(=O)C(C)(C)NC(=O)[C@@H](NC(=O)[C@H](CCCCNC(C)=O)NC(=O)C(C)(C)NC(=O)[C@H](CCCNC(=N)N)NC(=O)[C@@H](NC(=O)[C@H](CCCCN)NC(=O)[C@H](CCC(=O)O)NC(=O)[C@H](CCCNC(=N)N)NC(=O)CNC(=O)[C@H](CCC(=O)O)NC(=O)[C@H](CC(C)C)NC(C)=O)C(C)C)[C@@H](C)CC)C(=O)N[C@@H](CO)C(=O)N[C@H](C(=O)N[C@@H](Cc1c[nH]c2ccccc12)C(=O)N[C@@H](CO)C(=O)NC(C)(C)C(=O)N[C@@H](CCCNC(=N)N)C(=O)N[C@@H](C)C(=O)N[C@@H](CCCCNC(C)=O)C(N)=O)[C@@H](C)O)C(=O)O)C(=O)O)C(=O)O [compound 82] (Ac-LEGREKVR[Aib]K(Ac)I[Aib][Aib]EGK([Suc-X1])STWS[Aib]RAK(Ac)-NH2)

EC50 (human RXFP1 [1]): 0.09 nM
Emax (human RXFP1 [1]): 99%
Molecule: CCCCCCCCCCCCCCCCCC(=O)N[C@@H](CCC(=O)N[C@@H](CCC(=O)N[C@@H](CCC(=O)NCCCOCCOCCOCCCNC(=O)CCC(=O)NCCCOCCOCCOCCCNC(=O)CCC(=O)NCCCOCCOCCOCCCNC(=O)CCC(=O)NCCCOCCOCCOCCCNC(=O)CCC(=O)NCCCC[C@H](NC(=O)CNC(=O)[C@H](CCC(=O)O)NC(=O)C(C)(C)NC(=O)C(C)(C)NC(=O)[C@@H](NC(=O)[C@H](CCCCNC(C)=O)NC(=O)[C@H](C)NC(=O)[C@H](CCCNC(=N)N)NC(=O)[C@@H](NC(=O)[C@H](CCCCN)NC(=O)[C@H](CCC(=O)O)NC(=O)[C@H](CCCNC(=N)N)NC(=O)CNC(=O)[C@H](CCC(=O)O)NC(=O)[C@H](CC(C)C)NC(C)=O)C(C)C)[C@@H](C)CC)C(=O)N[C@@H](CO)C(=O)N[C@H](C(=O)N[C@@H](Cc1ccccc1)C(=O)N[C@@H](CO)C(=O)NC(C)(C)C(=O)N[C@@H](CCCNC(=N)N)C(=O)N[C@@H](CCCCN)C(=O)N[C@@H](CCCCNC(C)=O)C(N)=O)[C@@H](C)O)C(=O)O)C(=O)O)C(=O)O [compound 59] (Ac-LEGREKVRAK(Ac)I[Aib][Aib]EGK([Suc-X2])STFS[Aib]RKK(Ac)-NH2)

EC50 (nM), OVCAR 5 cells (cAMP) (human RXFP1 [3]): 0.08 nM
EMax, OVCAR 5 cells (cAMP) (human RXFP1 [3]): 98%
Molecule: Ac-LEGREKVRAK(Ac)I[Aib][Aib]EGK([TTDS-TTDS-TTDS-TTDS-γGlu-γGlu-γGlu-Stearoyl])STWS[Aib]RKK(Ac)-NH2 [Relaxin peptide analogue of SEQ ID NO: 58]
